Here are results for 1 protein from publication PMC12442443, “Identifying interactions between TDP‐43's N‐terminal and RNA‐binding domains” (Protein Science : A Publication of the Protein Society, 2024).

The series deals with the molecule itself. Kind of series: native gel or EMSA; 4-16% Bis-Tris native gel, Coomassie; 8.125 uM RRM alone or with NTD(1-77) at 0.5:1, 1:1 and 2:1 (NTD:RRM); incubated 10 min at 25 C in 300 mM NaCl, 40 mM HEPES pH 6.5, 4 mM DTT; full shift only at 2:1; also repeated with added RNA. Background: A gel shift assay detects complexes by their altered migration in electrophoresis.

The term stoichiometry N denotes a count of units in the complex or per binding partner.

B1: TDP-43(102-260), tandem RNA recognition motifs RRM1 and RRM2 of TAR DNA-binding Protein 43 kilodaltons (domain or fragment, human)
chain: KTSDLIVLGLPWKTTEQDLKEYFSTFGEVLMVQVKKDLKTGHSKGFGFVRFTEYETQVKVMSQRHMIDGRWCDCKLPNSKQSQDEPLRSRKVFVGRCTEDMTEDELREFFSQYGDVMDVFIPKPFRAFAFVTFADDQIAQSLCGEDLIIKGISVHISNA
notes: 15N-labelled (M9 medium with 15NH4Cl) in the CPMG NMR; also called RRMs; RRM12; source: E. coli BL21(DE3), purified (His-Trap, Superdex size exclusion)
Regarding B1, the “stoichiometry N” value worked out at 2.
